Results on eight molecules are retold here after patent US20230096452A1 (SHANGHAI ESCUGEN BIOTECHNOLOGY, published 2023).

The term Kd denotes the equilibrium constant for the complex coming apart. A lower Kd goes with tighter binding. What is called EC50 is the midpoint of the concentration-response curve. Low values mean an effect from little substance, high ones a need for much substance.

Changes are numbered by the printed parent chain.

To fix the notation:
T1: mouse claudin 18.2 (mCLDN18.2) (mouse, UniProt P56857 10-264)
T1 construct: the stomach-type (A2) isoform is meant; also called m hCLDN18.2; HEK293-mCLDN18.2
T1 chain: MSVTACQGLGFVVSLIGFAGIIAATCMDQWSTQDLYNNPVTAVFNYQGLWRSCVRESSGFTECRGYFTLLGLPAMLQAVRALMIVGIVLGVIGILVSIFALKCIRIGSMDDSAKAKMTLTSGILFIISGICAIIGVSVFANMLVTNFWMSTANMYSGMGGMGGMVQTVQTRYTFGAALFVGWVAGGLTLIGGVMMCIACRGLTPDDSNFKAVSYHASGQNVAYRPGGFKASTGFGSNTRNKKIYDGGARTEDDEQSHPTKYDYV

B1: 163E12 human-mouse chimeric positive control antibody (antibody, V domains shown)
VH: QIQLVQSGPELKKPGETVKISCKASGYTFTNYGMNWVKQAPGKGLKWMGWINTNTGEPTYAEEFKGRFAFSLETSASTAYLQINNLKNEDTATYFCARLGFGNAMDYWGQGTSVTVSS
VL: DIVMTQSPSSLTVTAGEKVTMSCKSSQSLLNSGNQKNYLTWYQQKPGQPPKLLIYWASTRESGVPDRFTGSGSGTDFTLTISSVQAEDLAVYYCQNDYSYPLTFGAGTKLELKR
notes: Self-made, expressed in CHOS cells, Protein A purified; also called Benchmarker; Benchmark
B2: 175D10 human-mouse chimeric positive control antibody (antibody, V domains shown)
VH: QVQLQQPGAELVRPGASVKLSCKASGYTFTSYWINWVKQRPGQGLEWIGNIYPSDSYTNYNQKFKDKATLTVDKSSSTAYMQLSSPTSEDSAVYYCTRSWRGNSFDYWGQGTTLTVSS
VL: B1 VL with L102F, A106S, L112I
notes: Self-made, expressed in CHOS cells, Protein A purified; also called Benchmark
B3: 5-M9 human-mouse chimeric monoclonal antibody (antibody, human IgG1, V domains shown)
VH: QVQLKESGPVLVAPSQSLSITCTVSGFSLTTYGVQWVRQPPGKGLEWLGAIWAGGNTNYNSALMSRLSISKDNSKSQVFLKMNSLQTDDTAIYYCAKGGYGNAMDYWGQGTSVTVAS
VL: DIVMTQSPSSLTVTAGERVTMSCKSSQSLLNSGNQKNYLTWYQQKSGQPPKLLIYWASTRESGVPDRFTGSGSGTDFTLTISSVQAEDLAVYYCQNDYFFPFTFGSGTKLEIK
notes: Mouse V regions fused to human IgG1 (G1m17) heavy chain constant region and human kappa light chain constant region; also called 5-M9-A; Chi 5-M9
B4: 9-D1 human-mouse chimeric monoclonal antibody (antibody, human IgG1, V domains shown)
VH: EIQLQQSGAELVKPGASVKISCKASGYSFTDYHMNWVRQSHGKSLEWIGNIDPYYGSPTYNHKFKGKATLTVDKSSSTAYMQLISLTSEDSAVYYCANYGRGNSFPYWGQGTLVTVSA
VL: B3 VL with R18K, K36R, S46P, I54L, F99S
notes: Mouse V regions fused to human IgG1 (G1m17) heavy chain constant region and human kappa light chain constant region; also called 9-D1-A
B5: h5M9v9 humanized antibody (h5M9 VHv3 / h5M9 VLv3) (antibody, V domains shown)
VH: QVQLKESGPGLVAPSETLSITCTVSGFSLTTYGVQWVRQPPGKGLEWLGAIWAGGNTNYNSALMSRLTISKDNSKSQVSLKMSSVTAADTAIYYCAKGGYGNAMDYWGQGTLVTVSS
VL: B3 VL with T12A, T14S, A15L, S22N, S46P
notes: Human IgG1 (G1m17) heavy and human kappa light constant regions
B6: h5M9V10 humanized antibody (h5M9 VHv4 / h5M9 VLv1) (antibody, human IgG1, kappa, V domains shown)
VH: B5 VH with V85L
VL: DIVMTQSPSSLAVSLGERATMNCKSSQSLLNSGNQKNYLTWYQQKPGQPPKLLIYWASTRESGVPDRFSGSGSGTDFTLTISSVQAEDLAVYYCQNDYFFPFTFGQGTKLEIKR
notes: Human IgG1 (G1m17) / kappa
B7: h5M9V7 humanized antibody (h5M9 VHv3 / h5M9 VLv1) (antibody, human IgG1, kappa, V domains shown)
VH: B5 VH
VL: B6 VL
notes: Human IgG1 (G1m17) / kappa
B8: h5M9V12 humanized antibody (h5M9 VHv4 / h5M9 VLv3) (antibody, human IgG1, kappa, V domains shown)
VH: B5 VH with V85L
VL: B6 VL with A19V, S69T, Q106S
notes: Human IgG1 (G1m17) / kappa

The first assay addresses T2, human claudin 18.2 (hCLDN18.2) (human).
T2 construct: also called CLDN18 splice variant 2; HEK293-hCLDN18.2
The experiment in a line: flow cytometry (direct FACS binding, equilibrium at 4 C) on HEK293-hCLDN18.2 cells. Background: A flow cytometer gives signals particle by particle.
Description: After resuscitation of HEK293 cells (HEK293-hCLDN18.2) stably expressing CLDN18.2, they were cultured and passaged until a certain number of cells were reached. The cells were distributed to 1 mL centrifuge tubes at a density of 5×10⁴/mL, and centrifuged for use. […] To eliminate ligand depletion effects (Ligand Depletion), antibody concentration series were prepared using PBS binding buffer diluted to the corresponding ligand depletion volume. HEK293-hCLDN18.2 cells were mixed and incubated with serial concentrations of antibodies formulated to the ligand elimination volume, and incubated at 4° C. until equilibrium.
As to B1, the Kd turned out to be 0.137 nM.

Regarding B2, the Kd was found to be 0.189 nM.

Take B3: binding was characterised by a dissociation constant (Kd) of 0.048 nM.

Turning to B4, the Kd came out at 0.049 nM. This Kd and that of the molecule before are within 1.5-fold of each other.

Another assay deals with T2, human claudin 18.2 (hCLDN18.2). The assay is described as follows: flow cytometry on HEK293-hCLDN18.2 cells; 5 ug/mL; not heat treated.
Description: (§1) The well-grown HEK293-hCLDN18.2 stably transfected cell line and the hCLDN18.2 low-expressing KATOIII human gastric cancer cell line sorted and enriched by flow cytometry were digested with trypsin, and resuspended to adjust the cell concentration to 1.5×10⁶˜2×10⁶/mL, added to a 96-well U-plate at 100 μL/well (150,000 to 200,000 cells/well). Washing once with PBS buffer containing 1% fetal bovine serum (FBS). The antibody solution (100 μL/well) with the test concentration prepared in PBS (+1% FBS) was added, mixed with the cells, and incubated at 4° C. for 1 hour. Cells were centrifuged at 200 g and washed once with PBS (+1% FBS). […] Cells were centrifuged at 200 g and washed twice with PBS (+1% FBS), then resuspended in 100 μL of PBS (+1% FBS) for flow cytometric analysis. […] In the study of the effect of heat treatment on the binding properties of antibodies, the antibody to be tested was heat-treated at 70° C. for 5 minutes on a PCR machine, and then incubated with cells for binding.
As for B2, the “FACS binding signal (read-out unnamed)” value was determined as 567.

As for B3, the “FACS binding signal (read-out unnamed)” value was found to be 638.

As to B5, the “FACS binding signal (read-out unnamed)” value was 589.

Consider B6, for which the “FACS binding signal (read-out unnamed)” value worked out at 599.

B7: the “FACS binding signal (read-out unnamed)” value stood at 631.

With B8, the “FACS binding signal (read-out unnamed)” value was found to be 589.

The next assay shares this target. The assay is described as follows: flow cytometry on HEK293-hCLDN18.2 cells; 0.2 ug/mL; antibody heat treated at 70 C for 5 min.
Description: as §1
Turning to B3, the “FACS binding signal (read-out unnamed)” value came out at 75.6.

Consider B5, for which the “FACS binding signal (read-out unnamed)” value came to 59.2.

For the molecule B6, the “FACS binding signal (read-out unnamed)” value came out at 70.8.

For B7, the “FACS binding signal (read-out unnamed)” value turned out to be 73.3.

Take B8: the “FACS binding signal (read-out unnamed)” value turned out to be 90.

Another assay concerns the target T1, mouse claudin 18.2 (mCLDN18.2). The experiment in a line: flow cytometry, HEK293-mCLDN18.2 cells, fixed and non-fixed.
B1: the binding result is listed as “binds”.

The target of the next assay is T2, human claudin 18.2 (hCLDN18.2). The assay is described as follows: cell-based or functional assay.
In the case of B1, the “EC50” value was determined as 0.0195 ng/mL and the Maximum induction fold came out at 36.3 fold.

Regarding B3, the “EC50” value was found to be 0.000287 ng/mL and the Maximum induction fold is 40 fold.

B4: the “EC50” value worked out at 0.0074 ng/mL and the Maximum induction fold is 35 fold.

For another assay the target is unchanged. The experiment in a line: flow cytometry on HEK293-hCLDN18.2 cells; 1 ug/mL; antibody heat treated at 70 C for 5 min.
Description: as §1
Regarding B2, the “FACS binding signal (read-out unnamed)” value came to 296.

With B3, the “FACS binding signal (read-out unnamed)” value was found to be 289.

B5: the “FACS binding signal (read-out unnamed)” value was 242.

With B6, the “FACS binding signal (read-out unnamed)” value was 292.

For B7, the “FACS binding signal (read-out unnamed)” value stood at 294.

With B8, the “FACS binding signal (read-out unnamed)” value amounted to 411.

Another assay addresses T3, mouse claudin 18.1 (mCLDN18.1) (mouse, UniProt P56857 1-264).
T3 construct: the lung-type (A1) isoform is meant; also called HEK293-mCLDN18.1
The assay is described as follows: flow cytometry, HEK293-mCLDN18.1 cells, paraformaldehyde-fixed and non-fixed.
Take B1: the binding result is listed as “no binding”.

Another assay has as its target T2, human claudin 18.2 (hCLDN18.2). The experiment in a line: flow cytometry on HEK293-hCLDN18.2 cells; 1 ug/mL; not heat treated.
Description: as §1
Turning to B2, the “FACS binding signal (read-out unnamed)” value came to 318.

Consider B3, for which the “FACS binding signal (read-out unnamed)” value turned out to be 341.

Turning to B5, the “FACS binding signal (read-out unnamed)” value turned out to be 291.

As to B6, the “FACS binding signal (read-out unnamed)” value was 316.

As for B7, the “FACS binding signal (read-out unnamed)” value came to 296.

For B8, the “FACS binding signal (read-out unnamed)” value is 419.

A further assay has the same target. The assay is described as follows: flow cytometry on HEK293-hCLDN18.2 cells; 5 ug/mL; antibody heat treated at 70 C for 5 min.
Description: as §1
As to B2, the “FACS binding signal (read-out unnamed)” value was determined as 600.

For the molecule B3, the “FACS binding signal (read-out unnamed)” value amounted to 746.

For B5, the “FACS binding signal (read-out unnamed)” value turned out to be 636.

As to B6, the “FACS binding signal (read-out unnamed)” value amounted to 607.

For B7, the “FACS binding signal (read-out unnamed)” value worked out at 732.

As for B8, the “FACS binding signal (read-out unnamed)” value was 673.

For a further assay the target is unchanged. The assay is described as follows: flow cytometry on HEK293-hCLDN18.2 cells; 0.2 ug/mL; not heat treated.
Description: as §1
For the molecule B2, the “FACS binding signal (read-out unnamed)” value turned out to be 81.3.

With B3, the “FACS binding signal (read-out unnamed)” value was 83.

On to B5, for which the “FACS binding signal (read-out unnamed)” value is 66.8.

Take B6: the “FACS binding signal (read-out unnamed)” value was 73.7.

With B7, the “FACS binding signal (read-out unnamed)” value is 84.3.

For the molecule B8, the “FACS binding signal (read-out unnamed)” value worked out at 103.

For a further assay the target is unchanged. The experiment in a line: flow cytometry on hCLDN18.2 low-expressing KATO III cells.
Description: as §1
In turn, B2 yielded an EC50 of 800 ng/mL.
